Molecular target: T1, GST-DRG9Nip (Oryza sativa ssp. japonica cv. Nipponbare) (UniProt Q69P58)
T1 sequence: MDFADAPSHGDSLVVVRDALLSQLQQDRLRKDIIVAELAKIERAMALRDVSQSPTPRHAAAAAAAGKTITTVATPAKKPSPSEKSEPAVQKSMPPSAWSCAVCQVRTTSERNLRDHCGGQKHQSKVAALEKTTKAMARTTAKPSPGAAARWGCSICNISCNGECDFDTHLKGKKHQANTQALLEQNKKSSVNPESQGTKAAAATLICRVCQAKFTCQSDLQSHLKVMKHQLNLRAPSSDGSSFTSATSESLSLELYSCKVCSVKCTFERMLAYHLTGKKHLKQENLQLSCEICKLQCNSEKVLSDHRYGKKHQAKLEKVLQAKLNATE
Experiment: EMSA
Conditions: 20 mM Hepes pH 7.5, 20 mM KCl2 (so in the source), 1 mM MgCl2, 10 mM ZnCl2, 5 mM DTT, 10% glycerol, 0.1% NP-40, room temperature, 1 h; 6% native PAGE, 0.5x TBE

## GGGCUCAAAUUAAUUAGCCAGUGAAAAAUCAAAUUACAGAGUUGCUUAAUUUUUUUACUAGUAGAACGCAACAGUAAAAAGAAUUAACAGCAGUGAAUUAUUAGUUAAUUAGCUAGGGAGUUGAAAUAGUUUAGCGGUCAUGCACUACUGAUUUUUAAUUAGUGCAGACAACGACCGCGUGUGUGUAUAUGCAUGUAUACCUUUUACUGUAUCUUCAGAUUGUGUAUAUAUAUCAUAUAUGUACAGGAAAAGAUUUAUAUAUCAUACAUAUUUUGUUGU [OsNCED4 3'-UTR RNA]
  binding: binds
